Consider 2 molecules from PMC4908374, “A humanized anti-DLL4 antibody promotes dysfunctional angiogenesis and inhibits breast tumor growth” (Scientific Reports, 2016).

The Kd is the equilibrium constant for the complex coming apart. As a reminder, the koff is the first-order rate constant of dissociation. By kon is commonly meant the rate constant with which the complex forms.

In this assay the target is T1, rhDLL4 (recombinant human Delta-like 4) (Homo sapiens, UniProt Q9NR61).
T1 construct: Delta-like 4 (DLL4), human, recombinant
In words: SPR; Biacore X100; HCLC or H3L2 captured (up to 2,000 RU) by anti-human IgG Fc antibody immobilised on a CM5 chip; rhDLL4 up to 100 nM flowed; 25 °C, 30 μl/min; 1:1 binding model; KD from kd/ka. As to conditions: both partners purified. A general note: In SPR one partner is held on a chip, and binding of the other changes the refractive index at the surface.

Where “and” joins values, the source holds several entries; their conditions need not be identical. Identical values can stand only once.

T1 sequence (Q9NR61 27-685, stated change not applied): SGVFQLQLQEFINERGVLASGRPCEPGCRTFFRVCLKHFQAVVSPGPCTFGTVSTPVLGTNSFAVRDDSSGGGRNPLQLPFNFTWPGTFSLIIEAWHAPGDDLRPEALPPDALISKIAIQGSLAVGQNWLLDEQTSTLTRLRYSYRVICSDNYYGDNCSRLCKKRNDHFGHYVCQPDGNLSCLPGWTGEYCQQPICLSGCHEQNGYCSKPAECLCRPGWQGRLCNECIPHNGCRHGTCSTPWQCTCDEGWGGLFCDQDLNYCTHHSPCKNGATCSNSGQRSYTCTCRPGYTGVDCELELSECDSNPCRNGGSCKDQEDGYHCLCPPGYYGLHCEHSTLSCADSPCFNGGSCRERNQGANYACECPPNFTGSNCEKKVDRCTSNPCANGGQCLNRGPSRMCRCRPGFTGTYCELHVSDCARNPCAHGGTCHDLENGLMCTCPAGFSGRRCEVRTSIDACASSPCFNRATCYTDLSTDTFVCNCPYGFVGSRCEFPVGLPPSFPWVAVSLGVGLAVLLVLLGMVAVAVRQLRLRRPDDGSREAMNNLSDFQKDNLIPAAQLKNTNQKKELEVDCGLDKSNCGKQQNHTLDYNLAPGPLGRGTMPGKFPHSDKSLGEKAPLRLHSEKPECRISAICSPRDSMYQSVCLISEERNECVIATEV

B1: H3L2, humanized anti-DLL4 antibody (VH3, VL2) (antibody, V domains shown)
VH: QVQLVQSGAEVKKPGSSVKVSCKASGYTFSGYWMQWIKQAPGQGLEWIGAIYPGDGDTRYTQKFKGRATLTADKSTSTAYMELSSLRSEDTAVYYCAGGNFFFDYWGQGTLVTVSS
VL: EIVITQSPDFQSVTPKEKVTITCSVSSSISSSYLHWYQQKPDQSPKPWIYGTSNLASGVPSRFSGSGSGTDYTLTINSLEAEDAATYYCQQWSSSPLTFGQGTKLEIK
notes: Full-length IgG1; also called humanized antibody; source: CHO-s, transiently transfected, in supernatant
In the case of B1, the Kd came out at 2.26 pM, the koff stood at 2.59e-05 s⁻¹ and the kon is 1.15e+07 M⁻¹ s⁻¹.

B2: HCLC, murine-human chimeric anti-DLL4 antibody (VH and VL of MMGZ01 on human constant regions) (antibody, V domains shown)
VH: EVQLEESGTELARPGASVKLSCKASGYIFSGYWMQWIKQRPGQGLEWIGAIYPGDGDTRYTQKFKGKATLTADKSSSTAYMQLSSLASEDSAVYYCAGGNFFFDYWGLGTTLAVSS
VL: DIVITQSPALMAASPGEKVTITCSVSSSISSSYLHWYQQKSGISPKPWIYGTSNLASGVPARFSGSGSGTSYSLTITSMEAEDAATYYCQQWSSSPLTFGAGTKLELK
notes: as the VH of m6; as the VL of m6; Full-length IgG1; also called chimeric antibody; source: CHO-s, transiently transfected, in supernatant
As for B2, the Kd is 1.14 pM and 1.41 pM; the koff amounted to 2.42e-05 s⁻¹; the on-rate (kon) worked out at 1.72e+07 M⁻¹ s⁻¹.
